Measured values from paper PMC2602759.
Where “and” joins values, the source holds several entries; their conditions need not be identical. Equal entries are not always repeated.

Assays:
[1] = biological target: HIV-1 integrase (IN) (HIV-1); assay: SEC
[2] = biological target: HIV-1 integrase (IN) (HIV-1); assay: cross-linking

Substance: HIV-1 integrase (IN) (enzyme)
- stoichiometry N [1]: 2 and 4
- stoichiometry N [2]: 2
